Reference: patent US20110262366A1

Key:
[1] = target: endothelial cell receptor on HAEC (human aortic endothelial cells); test: competition, 2500 ng/ml KDR/Fc against 5% DPPE-GTKPPR microbubbles (competitor) on HAEC, static
[2] = target: endothelial cell receptor on HAEC (human aortic endothelial cells); test: competition, 500 ng/ml KDR/Fc against 5% DPPE-GTKPPR microbubbles (competitor) on HAEC, static
[3] = target: endothelial cell receptor on HAEC (human aortic endothelial cells); test: competition, 125 ng/ml KDR/Fc against 5% DPPE-GTKPPR microbubbles (competitor) on HAEC, static
[4] = target: endothelial cell receptor on HAEC (human aortic endothelial cells); test: competition, 1000 ng/ml KDR/Fc against 5% DPPE-GTKPPR microbubbles (competitor) on HAEC, static
[5] = target: endothelial cell receptor on HAEC (human aortic endothelial cells); test: competition, 250 ng/ml KDR/Fc against 5% DPPE-GTKPPR microbubbles (competitor) on HAEC, static
[6] = target: endothelial cell receptor on HAEC (human aortic endothelial cells); test: conjugated fluorescent beads on confluent HAEC, static 30 min, image analysis (Example 2, experiment 1)
[7] = target: endothelial cell receptor on HAEC (human aortic endothelial cells); test: competition, 400 ng/ml VEGF121 against 2% BRU-114 microbubbles (competitor) on HAEC, static
[8] = target: endothelial cell receptor on HAEC (human aortic endothelial cells); test: competition, 100 ng/ml VEGF121 against 2% BRU-114 microbubbles (competitor) on HAEC, static
[9] = target: endothelial cell receptor on HAEC (human aortic endothelial cells); test: competition, 200 ng/ml VEGF121 against 2% BRU-114 microbubbles (competitor) on HAEC, static
[10] = target: endothelial cell receptor on HAEC (human aortic endothelial cells); test: competition, 200 ng/ml VEGF165 against 2% BRU-114 microbubbles (competitor) on HAEC, static
[11] = target: endothelial cell receptor on HAEC (human aortic endothelial cells); test: competition, 75 ng/ml VEGF165 against 5% DPPE-GTKPPR microbubbles (competitor) on HAEC, static
[12] = target: NP-1/Fc (Neuropilin-1/Fc, R&D Systems); test: fluorescence polarization, competition against OG-labeled BRU-326 (competitor) on NP-1/Fc
NP-1/Fc (Neuropilin-1/Fc, R&D Systems), sequence (Q9QWJ9 22-855): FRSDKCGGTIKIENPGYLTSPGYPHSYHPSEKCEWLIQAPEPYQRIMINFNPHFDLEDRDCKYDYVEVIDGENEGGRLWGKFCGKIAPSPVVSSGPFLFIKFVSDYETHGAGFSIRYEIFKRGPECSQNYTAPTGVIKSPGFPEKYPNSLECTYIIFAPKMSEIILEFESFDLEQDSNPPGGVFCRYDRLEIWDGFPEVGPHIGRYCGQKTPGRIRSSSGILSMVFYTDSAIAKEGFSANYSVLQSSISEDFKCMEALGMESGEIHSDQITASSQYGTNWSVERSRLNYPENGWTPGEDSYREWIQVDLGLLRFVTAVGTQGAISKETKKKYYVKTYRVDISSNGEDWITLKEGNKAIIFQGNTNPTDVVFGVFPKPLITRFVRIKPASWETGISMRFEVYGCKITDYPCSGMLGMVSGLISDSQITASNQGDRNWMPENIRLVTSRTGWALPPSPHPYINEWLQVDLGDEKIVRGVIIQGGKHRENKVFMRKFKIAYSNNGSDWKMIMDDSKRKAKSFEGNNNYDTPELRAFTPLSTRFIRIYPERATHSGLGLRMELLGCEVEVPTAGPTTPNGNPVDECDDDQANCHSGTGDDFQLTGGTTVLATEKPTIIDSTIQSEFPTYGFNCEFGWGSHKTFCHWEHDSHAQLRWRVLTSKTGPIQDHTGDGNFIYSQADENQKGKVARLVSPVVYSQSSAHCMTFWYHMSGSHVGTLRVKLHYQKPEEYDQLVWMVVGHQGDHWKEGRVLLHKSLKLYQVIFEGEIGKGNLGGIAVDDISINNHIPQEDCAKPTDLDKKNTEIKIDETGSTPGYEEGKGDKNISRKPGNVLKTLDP

[13] = target: endothelial cell receptor on HAEC (human aortic endothelial cells); test: competition, 25 ng/ml VEGF165 against 5% DPPE-GTKPPR microbubbles (competitor) on HAEC, static
[14] = target: endothelial cell receptor on HAEC (human aortic endothelial cells); test: competition, 100 ng/ml VEGF165 against 2% BRU-114 microbubbles (competitor) on HAEC, static
[15] = target: endothelial cell receptor on HAEC (human aortic endothelial cells); test: competition, 25 ng/ml VEGF165 against 2% BRU-114 microbubbles (competitor) on HAEC, static
[16] = target: endothelial cell receptor on HAEC (human aortic endothelial cells); test: competition, 6.25 ng/ml VEGF165 against 5% DPPE-GTKPPR microbubbles (competitor) on HAEC, static
[17] = target: endothelial cell receptor on HAEC (human aortic endothelial cells); test: competition, 50 ng/ml VEGF165 against 5% DPPE-GTKPPR microbubbles (competitor) on HAEC, static
[18] = target: endothelial cell receptor on HAEC (human aortic endothelial cells); test: competition, VEGF165 against 5% DPPE-GTKPPR microbubbles (competitor) on HAEC, static
[19] = target: endothelial cell receptor on HAEC (human aortic endothelial cells); test: competition, 12.5 ng/ml VEGF165 against 5% DPPE-GTKPPR microbubbles (competitor) on HAEC, static

soluble human KDR/Fc chimera (R&D Systems Inc.), sequence (P35968 20-764, change not shown): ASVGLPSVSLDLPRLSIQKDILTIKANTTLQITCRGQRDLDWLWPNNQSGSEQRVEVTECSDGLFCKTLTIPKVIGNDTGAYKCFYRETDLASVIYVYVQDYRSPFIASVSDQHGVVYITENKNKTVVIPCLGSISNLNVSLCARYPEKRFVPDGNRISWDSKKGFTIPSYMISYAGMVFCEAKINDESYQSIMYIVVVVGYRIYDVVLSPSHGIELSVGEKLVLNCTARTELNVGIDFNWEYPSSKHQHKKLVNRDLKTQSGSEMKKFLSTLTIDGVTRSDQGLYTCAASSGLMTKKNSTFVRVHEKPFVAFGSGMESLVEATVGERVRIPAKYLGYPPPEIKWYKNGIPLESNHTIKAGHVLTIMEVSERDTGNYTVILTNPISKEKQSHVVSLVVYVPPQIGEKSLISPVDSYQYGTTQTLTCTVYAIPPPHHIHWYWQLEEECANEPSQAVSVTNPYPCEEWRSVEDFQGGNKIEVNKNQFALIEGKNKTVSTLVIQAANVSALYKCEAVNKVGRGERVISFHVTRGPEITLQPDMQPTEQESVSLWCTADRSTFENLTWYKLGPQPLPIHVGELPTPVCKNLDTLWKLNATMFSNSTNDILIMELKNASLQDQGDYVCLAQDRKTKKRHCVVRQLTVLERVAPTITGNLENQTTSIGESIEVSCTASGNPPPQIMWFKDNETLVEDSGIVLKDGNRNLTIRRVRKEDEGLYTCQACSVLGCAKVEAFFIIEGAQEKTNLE

soluble human KDR/Fc chimera (R&D Systems Inc.) (from UniProt P35968 20-764) (Fc fusion)
Bubbles Bound in presence of competitor [1]: 84 bubbles | Bubbles Bound in presence of competitor [2]: 342 bubbles | Bubbles Bound in presence of competitor [3]: 1030 bubbles | Bubbles Bound in presence of competitor [4]: 75 bubbles | Bubbles Bound in presence of competitor [5]: 786 bubbles

BSA-conjugated fluorescent beads (from UniProt P02769 25-607)
Integrated density of bound beads (arbitrary units) [6]: 1.61

VEGF121 (from UniProt P15692 27-147) (ligand)
Bubbles Bound in presence of competitor [7]: 778 bubbles | Bubbles Bound in presence of competitor [8]: 878 bubbles | Bubbles Bound in presence of competitor [9]: 849 bubbles

VEGF165 (from UniProt P15692 27-191) (ligand)
Bubbles Bound in presence of competitor [10]: 70 bubbles | Bubbles Bound in presence of competitor [11]: 190 bubbles | IC50 [12]: 200 nM | Bubbles Bound in presence of competitor [13]: 342 bubbles | Bubbles Bound in presence of competitor [14]: 94 bubbles | Bubbles Bound in presence of competitor [15]: 144 bubbles | Bubbles Bound in presence of competitor [16]: 1180 bubbles | Bubbles Bound in presence of competitor [17]: 226 bubbles | IC50 [18]: 0.0125 µg/mL | Bubbles Bound in presence of competitor [19]: 599 bubbles
